Measurements from patent publication US20220380446A1 (ABL BIO, published 2022).

Columns and labels:
[1] = molecular target: T1, human α-synuclein pre-formed fibrils (Human Alpha Synuclein Pre-formed Fibrils Type II, StressMarq SPR-317) (human, UniProt P37840 1-140); assay: SPR (Biacore), antibody captured on anti-hFab CM3 chip, α-syn PFF as analyte (sample PFF-1), single-cycle kinetics, 1:1 Binding fit, 25 °C; Run1
Description: (§1) The equipment used was Biacore®. Anti-hFab (Sigma, I5260-1ML) diluted in acetate buffer (pH 5.0) was immobilized on the surface of an CM3 chip (GE Healthcare) by amine coupling. […] All procedures in association and dissociation phases were done in single-cycle kinetics. A 1:1 binding model was used for fitting, and the Biacore® T200 Evaluation software was used for the evaluation.

[2] = molecular target: T1, human α-synuclein pre-formed fibrils …; assay: SPR Biacore T200, antibody captured on Protein A chip, α-syn PFF analyte, 1:1 model
Description: (§2) The equipment used was Biacore® (GE Healthcare, Model T200). Protein A (GE Healthcare, Cat: 29-1275-56) was used as a chip, 10 mM glycine-HCl pH 1.5 (GE Healthcare, Cat: BR-1003-54) was used as a regeneration buffer, and HBS-EP was used as a running buffer and an analyte dilution and sample dilution buffer. […] A capture phase was carried out at a contact time of 60 seconds and a flow rate of 30 μL/min was used for a stabilization period of 60 seconds, with the target resonance units (RU) of fibril set to 10 (theoretical). In an association phase, the association time was set to 60 seconds and a flow rate was set to 60 μL/min. In a dissociation phase, the dissociation time was set to 180 seconds, and a flow rate was set to 60 μL/min. In a regeneration phase, the flow rate was set to 30 μL/min, and the regeneration time was set to 60 seconds. A 1:1 binding model was used for fitting, and the Biacore® T200 Evaluation software (GE Healthcare) was used for the evaluation.

[3] = molecular target: T1, human α-synuclein pre-formed fibrils …; assay: as above; remark: listed apart in the source
Description: as §2

[4] = molecular target: T1, human α-synuclein pre-formed fibrils …; assay: sandwich ELISA, antibody coated, α-syn PFF added, 7B7-biotin detection
Description: Specifically, the antibodies were diluted with PBS by six-fold serial dilution from 400 nM to 0.009 nM. The diluted antibodies were added to a 96-well plate at 100 μL/well for coating. The plate was sealed and incubated at 4° C. for 16 hours. After washing with phosphate-buffered saline with Tween® (PBS-T; 0.05% Tween® 20) five times, the plate was blocked with 5% BSA in PBS 200 μL/well at 37° C. for 2 hours. After washing with PBS-T five times, α-syn PFF (2 μg/mL, 100 μL/well in 2% BSA in PBS) was added to the plate and incubated at 37° C. for 2 hours. After washing with PBS-T five times, 7B7-biotin antibody (anti-α-syn antibody; 1 μg/mL/100 μL/well, in 2% BSA in PBS) was added and incubated at 37° C. for 2 hours. After washing with PBS-T five times, the plate was incubated with horseradish peroxidase (HRP)-bound streptavidin in PBS with 2% BSA (1:5000, 1 mg/mL stock, 20 ng/well, 100 μL/well) at 37° C. for 1 hour. After washing with PBS-T five times, 3,3′,5,5′-tetramethylbenzidine (TMB) (100 μL/well) was added and incubated at room temperature for 5 minutes. The reaction was stopped by the addition of 0.5 N H₂SO₄ (50 μL/well). Optical absorbance at 450 nm was measured by using a plate reader, with absorbance at 650 nm subtracted from the reading.

[5] = molecular target: T1, human α-synuclein pre-formed fibrils …; assay: SPR (Biacore), file name 'Main-ProA', α-syn PFF as analyte (sample PFF-1), single-cycle kinetics, 1:1 Binding fit, 25 °C; Run01
[6] = molecular target: T1, human α-synuclein pre-formed fibrils …; assay: SPR Biacore 'as described above', antibody captured, α-syn PFF analyte, 1:1 model
[7] = molecular target: human α-synuclein oligomers (Dopamine HCL Stabilized Human Recombinant Alpha Synuclein Oligomers, StressMarq … (human, UniProt P37840 1-140)); assay: sandwich ELISA, antibody coated, oligomeric α-syn added, 7B7-biotin detection
Description: Human α-syn oligomers from StressMarq (Dopamine HCL Stabilized Human Recombinant Alpha Synuclein Oligomers, SPR-466) was used as the oligomeric α-syn in the assay.
In this sandwich ELISA, test antibodies were diluted with PBS by five-fold serial dilution from 80 nM to 0.005 nM. The serially diluted antibodies were added to a 96-well plate at 100 μL/well for coating. The plate was sealed and incubated at 4° C. for 16 hours. After washing with PBS-T five times, the plate was blocked with 5% BSA in PBS 200 μL/well at 37° C. for 2 hours. After washing with PBS-T five times, oligomeric α-syn (2 μg/mL, 100 μL/well in 2% BSA in PBS) was added and incubated at 37° C. for 2 hours. After washing with PBS-T five times, 7B7-biotin antibody (1 μg/mL, 100 μL/well, in 2% BSA in PBS) were added and incubated at 37° C. for 2 hours. After washing with PBS-T five times, the plate was incubated with Streptavidin-HRP in 2% BSA in PBS (1:5000, 1 mg/mL stock, 20 ng/well, 100 μL/well) at 37° C. for 1 hour. After washing with PBS-T five times, TMB (100 μL/well) was added and incubated at RT for 5 minutes. The reaction was stopped by the addition of 0.5 N H₂SO₄ (50 μL/well).

[8] = molecular target: T1, human α-synuclein pre-formed fibrils …; assay: SPR Biacore, antibody captured on anti-hFab CM3 chip, α-syn PFF analyte, single-cycle kinetics, 1:1 model
Description: as §1

- koff [1]: 0.00067 s⁻¹
- kon [1]: 1.91e+07 M⁻¹ s⁻¹
- Kd [2]: 0.0293 nM
- koff [2]: 0.000423 s⁻¹
- kon [2]: 1.45e+07 M⁻¹ s⁻¹
- Kd [3]: 0.0281 nM
- koff [3]: 0.000322 s⁻¹
- kon [3]: 1.14e+07 M⁻¹ s⁻¹
- EC50 [4]: 0.236 nM
- koff [5]: 0.000472 s⁻¹
- kon [5]: 1.35e+07 M⁻¹ s⁻¹
- Kd [6]: 0.025 nM
- koff [6]: 0.000345 s⁻¹
- kon [6]: 1.4e+07 M⁻¹ s⁻¹
- EC50 [7]: 3.62 nM
- Saturation point [7]: 3.18
- Kd [8]: 0.0379 nM
- koff [8]: 0.000706 s⁻¹
- kon [8]: 1.87e+07 M⁻¹ s⁻¹
B1: hu1E4(V1_VL1) x Grabody B (bispecific antibody, human IgG1, kappa)
heavy 1: not shown
heavy 2: not shown
light: DIVMTQTPLSLSVTPGQPASISCRSSQSLVHSNGNTYLHWYLQKPGQSPQLLIYKVSNRFSGVPDRFSGSGSGTDFTLKISRVEAEDVGVYYCSQSTHVPRTFGQGTKLEIKRTVAAPSVFIFPPSDEQLKSGTASVVCLLNNFYPREAKVQWKVDNALQSGNSQESVTEQDSKDSTYSLSSTLTLSKADYEKHKVYACEVTHQGLSSPVTKSFNRGEC
notes: Anti-α-syn/IGF1R bispecific; hole heavy chain (M428L) carries the anti-IGF1R scFv Grabody B at its C-terminus through a (G4S)3 linker; knob heavy chain (M428L) without scFv; also called hu1E4(V1 VL1) × Grabody B; 1E4(Ver.1_VL1) × Grabody B
